Experimental data taken from patent US20230390371A1, “ANTI-TUMOR IMMUNITY INDUCES THE PRESENTATION OF ABERRANT PEPTIDES” (STICHTING HET NEDERLANDS KANKER INSTITUUT-ANTONI VAN …, priority 2020, published 2023).

Assays:
[1] = tested on: MD55A3 cells expressing the out-of-frame tGFP+1 reporter gene; experiment: 2D-LC MS/MS full proteome, out-of-frame tGFP+1 reporter; format: cell-based, human; conditions: IFNγ-treated vs control MD55A3 cells, +1 out-of-frame tGFP
Description: For deeper proteome coverage in search of IFNγ-induced frameshifts, IFNγ- or mock treated melanoma cells were lysed and digested as described above, after which dried digests were subjected to basic reversed-phase (HpH-RP) high-performance liquid chromatography for offline peptide fractionation. 250 μg peptides were reconstituted in 95% 10 mM ammonium hydroxide (NH4OH, solvent A)/5% (90% acetonitrile (ACN)/10 mM NH4OH, solvent B) and loaded onto a Phenomenex Kinetex EVO C18 analytical column (150 mm×2.1 mm, particle size 5 μm, 100 Å pores) coupled to an Agilent 1260 HPLC system equipped with a fraction collector. […] All fractions were analyzed by nanoLC-MS/MS on an Orbitrap Fusion Tribrid mass spectrometer equipped with an Easy-nLC1000 system (Thermo Scientific) as described previously^72. […]
Further, the MS data was analyzed by MaxQuant (version 1.6.0.16)74. […] The in-frame protein expression data was further normalized and analyzed using DEP^76, For the frame-shift proteome analysis, the MS data was analyzed by MaxQuant (version 1.6.0.16)^74 with LFQ normalization, and then was scanned against the trans-frame polypeptide database together with the SWISSPROT proteins with Evidence level of 1. […] Only the peptides reproducibly detected across replicates were retained for further analysis, and the list included reverse peptide hits (n=41) (FIG. 4c). […]

[2] = tested on: A375 cells expressing H2-Kb; experiment: H2-Kb-bound SIINFEKL presentation from V5-ATF4(1-63)-tGFP-SIINFEKL reporters; format: cell-based, human; conditions: IFNγ treatment
Source text: FIG. 4: Aberrant frameshifted peptides are detected in full proteomes, are presented on HLA class I molecules, and induce peptide-specific T cell response. • (a) Gene set enrichment analysis (GSEA) based depiction of the proteomics data showing the induction of the IFN response and HLA genes following IFN treatment of MD55A3 cells. (b) A volcano plot showing differentially identified proteins as detected by 2D LC-MS/MS on lysates of MD55A3 cells expressing the V5-ATF4(1-63)-tGFP +1 out-of-frame construct. The red arrowhead indicates a peptide identified in the full proteome that corresponds to tGFP that could only have arisen from a frameshifting event. (c) Same analysis as panel b, but for the tryptophan-associated aberrant peptides identified to be reproducibly present in either IFNγ-treated or control conditions. […] (d) Bar graph depicting the median fluorescence intensity (MFI) of H2-Kb-bound SIINFEKL peptides in A375 cells expressing H2-Kb in combination with in-frame (Frame) or +1 out-of-frame (+1) V5-ATF4(1-63)-tGFP-SIINFEKL reporters. […] The panel presents 12 frameshifted peptides detected in the immuno-peptidomics mass spectrometry data of IFNγ and tryptophan deprived (mTRP) samples, which were not detected in the untreated controls. A subset of these were also detected in the fresh tumor metastases (mets) samples of the same patient (MD55). […]

B1: IFNγ: interferon gamma (PeproTech), used at 250 U/mL (protein, UniProt P01579 24-161, looked up)
Interferon gamma: QDPYVKEAENLKKYFNAGHSDVADNGTLFLGILKNWKEESDRKIMQSQIVSFYFKLFKNFKDDQSIQKSVETIKEDMNVKFFNSNKKKRDDFEKLTNYSVTDLNVQRKAIHELIQVMAELSPAAKTGKRKRSQMLFRG
induction of tGFP reporter peptide expression [1]: > 30 fold
presentation of +1 out-of-frame SIINFEKL peptide ([2]; +1 out-of-frame reporter, IDO1-dependent): strongly stimulated
presentation of in-frame SIINFEKL peptide ([2]; in-frame reporter, IDO1-independent): mildly induced
